Source: patent US20200317768A1 (published 2020)
Where a chain is given by its changes, count along the chain named.

T1: cynomolgus monkey FcγRIIa1 extracellular domain, His-tagged (cynomolgus monkey)
T1 construct: also called cyno FcgRIIa1; cynoFcγRIIa1; not shown: His-tag added to the C-terminus
T1 chain: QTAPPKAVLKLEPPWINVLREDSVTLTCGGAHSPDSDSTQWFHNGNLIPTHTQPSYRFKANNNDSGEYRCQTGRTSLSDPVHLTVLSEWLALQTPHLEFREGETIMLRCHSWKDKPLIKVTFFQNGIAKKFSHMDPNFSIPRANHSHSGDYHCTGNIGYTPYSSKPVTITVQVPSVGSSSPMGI

T2: cynomolgus monkey FcγRIIa3 extracellular domain, His-tagged (cynomolgus monkey)
T2 construct: also called cyno FcgRIIa3; cynoFcγRIIa3; not shown: His-tag added to the C-terminus
T2 chain: T1 chain with P95T, T121A, A128S, H133P, D135N

T3: human FcγRIIaR extracellular domain, His-tagged (human, UniProt P12318 34-217)
T3 construct: also called human FcgRIIaR; FcγRIIa (type R); not shown: His-tag added to the C-terminus
T3 chain: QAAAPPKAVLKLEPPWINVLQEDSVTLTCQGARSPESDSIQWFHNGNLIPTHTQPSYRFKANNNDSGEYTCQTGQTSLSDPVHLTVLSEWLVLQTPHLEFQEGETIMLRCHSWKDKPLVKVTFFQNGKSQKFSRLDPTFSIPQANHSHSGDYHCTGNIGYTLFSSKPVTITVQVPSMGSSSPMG

T4: human FcγRIIb extracellular domain, His-tagged (human, UniProt P31994 43-217)
T4 construct: also called human FcgRIIb; not shown: His-tag added to the C-terminus
T4 sequence: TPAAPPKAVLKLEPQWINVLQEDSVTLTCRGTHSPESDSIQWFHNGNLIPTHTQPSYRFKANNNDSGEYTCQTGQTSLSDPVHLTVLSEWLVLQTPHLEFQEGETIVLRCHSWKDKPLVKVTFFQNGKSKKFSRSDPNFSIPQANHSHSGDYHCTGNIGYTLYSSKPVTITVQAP

T5: cynomolgus monkey FcγRIIa2 extracellular domain, His-tagged (cynomolgus monkey)
T5 construct: also called cyno FcgRIIa2; cynoFcγRIIa2; not shown: His-tag added to the C-terminus
T5 chain: T1 chain with P95T, T121A, I127K, A128S, K130N, D135N, R142Q

T6: cynomolgus monkey FcγRIIb extracellular domain, His-tagged (cynomolgus monkey)
T6 construct: also called cyno FcgRIIb; cynoFcγRIIb; not shown: His-tag added to the C-terminus
T6 chain: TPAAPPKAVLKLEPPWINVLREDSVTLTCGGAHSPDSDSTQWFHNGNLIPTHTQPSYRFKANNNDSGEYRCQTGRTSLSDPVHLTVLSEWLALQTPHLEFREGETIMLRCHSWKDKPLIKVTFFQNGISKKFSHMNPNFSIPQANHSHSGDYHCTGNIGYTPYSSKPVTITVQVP

B1: M103205H795-MY262/M103202L889-SK1 (antibody, human IgG1, kappa)
heavy: QVTLKESGPVLVKPTETLTLTCTVSGIDLSHDDISWVRQAPGKGLEWVGIISYAGSTYYASWAKGRLTISKDTSKNQVVLTMTNMDPVDTATYYCARGVPAYSHGGDLWGQGTLVTVSSASTKGPSVFPLAPSSKSTSGGTAALGCLVKDYFPEPVTVSWNSGALTSGVHTFPAVLQSSGLYSLSSVVTVPSSSLGTQTYICNVNHKPSNTKVDKKVEPKSCDKTHTCPPCPAPELLVGPSVFLFPPKPKDTLMISRTPEVTCVVVDVSDEDPEVKFNWYVDGVEVHNAKTKPREEQYNSTYRVVSVLTVLHQDWLNGKEYKCKVSNKALPKPIEKTISKAKGQPREPQVYTLPPSREEMTKNQVSLTCLVKGFYPSDIAVEWESNGQPENNYKTTPPVLDSDGSFFLYSKLTVDKSRWQQGNVFSCSVMHEALHNHYTQKSLSLSP
light: DIVMTQSPATLSLSPGERATLSCTSSQSVYHANWLSWFQQKPGQPPKLLIYWASTLAYGVPSRFSGSGSGTDFTLTISSLQPEDAATYYCAGGYGGGRYAFGQGTKVEIKRTVAAPSVFIFPPSDEQLKSGTASVVCLLNNFYPREAKVQWKVDNALQSGNSQESVTEQDSKDSTYSLSSTLTLSKADYEKHKVYACEVTHQGLSSPVTKSFNRGEC
notes: copies: 2 + 2
B2: M103205H795-MY264/M103202L889-SK1 (antibody, human IgG1, kappa)
heavy: B1 heavy with V238L
light: B1 light
notes: copies: 2 + 2
B3: M103205H795-MY265/M103202L889-SK1 (antibody, human IgG1, kappa)
heavy: B1 heavy with V238T
light: B1 light
notes: copies: 2 + 2
B4: M103205H795-MY267/M103202L889-SK1 (antibody, human IgG1, kappa)
heavy: B1 heavy with V238I
light: B1 light
notes: copies: 2 + 2
B5: M103205H795-MY263/M103202L889-SK1 (antibody, human IgG1, kappa)
heavy: B1 heavy with V238Q
light: B1 light
notes: copies: 2 + 2

Target: T1, cynomolgus monkey FcγRIIa1 …
Assay: SPR; KD of SG1 divided by KD of the variant;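 also: relative to parent M103205H795-SG1 carrying the SG1 human heavy chain constant region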
Procedure: (§1) Regarding such interactions, KD values were calculated using the following 1:1 binding model described in BIACORE® T100 Software Handbook BR1006-48 Edition AE.
(§2) The behavior of interacting molecules according to the 1:1 binding model on BIACORE® can be described by Equation 1: Req=C·R max/(KD+C)+RI, wherein, Req is a plot of steady-state binding levels to analyte concentration. C is concentration, RI is bulk refractive index contribution in the sample, and Rmax is analyte binding capacity of the surface. When this equation is rearranged, KD can be expressed as Equation 2: KD=C·Rmax/(Req−RI)−C. KD can be calculated by substituting the values of Rmax, RI, and C into Equation 1 or Equation 2. From the current measurement conditions, RI=0, C=2 μmol/L can be used.
(§3) The resultant variants were expressed using M103202L889-SK1 as light chain and their affinity to human and cynoFcγRs were evaluated (Table 21).

Binder | KD fold (SG1 = 1)
B1 | 1.7 fold
B2 | 0.6 fold
B3 | 1.5 fold
B4 | 1.3 fold
B5 | 1 fold

Target: T2, cynomolgus monkey FcγRIIa3 …
Assay: SPR; KD of SG1 divided by KD of the variant;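 also: relative to parent M103205H795-SG1 carrying the SG1 human heavy chain constant region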
Procedure: as §1, §2, §3

Binder | KD fold (SG1 = 1)
B1 | 2.1 fold
B2 | 1.1 fold
B3 | 3.5 fold
B4 | 2.3 fold
B5 | 2.3 fold

target: T7, cynomolgus monkey FcγRIIIaS extracellular domain, His-tagged (cynomolgus monkey, UniProt A3RFZ7 21-206 (rhesus entry)); assay: SPR; KD of SG1 divided by KD of the variant;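 also: relative to parent M103205H795-SG1 carrying the SG1 human heavy chain constant region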
T7 construct: also called cyno FcgRIIIaS; cynoFcγRIIIaS; not shown: His-tag added to the C-terminus
Procedure: as §1, §2, §3

T7 sequence (A3RFZ7 21-206): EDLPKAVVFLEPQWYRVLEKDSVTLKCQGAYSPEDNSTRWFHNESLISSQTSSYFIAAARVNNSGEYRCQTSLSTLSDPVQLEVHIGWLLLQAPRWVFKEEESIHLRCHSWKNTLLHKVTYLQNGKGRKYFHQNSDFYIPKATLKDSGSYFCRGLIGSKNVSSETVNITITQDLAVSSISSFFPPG

Binder | KD fold (SG1 = 1)
B1 | 0.13 fold
B2 | 0.1 fold
B3 | 0.18 fold
B4 | 0.13 fold
B5 | 0.46 fold

Target: T3, human FcγRIIaR extracellular domain, …
Assay: SPR; KD of SG1 divided by KD of the variant;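 also: relative to parent M103205H795-SG1 carrying the SG1 human heavy chain constant region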
Procedure: as §1, §2, §3

Binder | KD fold (SG1 = 1)
B1 | 1.5 fold
B2 | 0.5 fold
B3 | 2.5 fold
B4 | 2.5 fold
B5 | 1.5 fold

target: T4, human FcγRIIb extracellular domain, …; assay: SPR; KD of SG1 divided by KD of the variant
Procedure: as §1, §2, §3

Binder | KD fold (SG1 = 1)
B1 | 0.8 fold
B2 | 0.4 fold
B3 | 2.1 fold
B4 | 0.8 fold
B5 | 1.3 fold

target: T8, human FcγRIIIaV extracellular domain, His-tagged (human, UniProt P08637 17-208); assay: SPR; KD of SG1 divided by KD of the variant
T8 construct: also called human FcgRIIIaV; not shown: His-tag added to the C-terminus
Procedure: as §1, §2, §3

T8 sequence (P08637 17-208 F176V): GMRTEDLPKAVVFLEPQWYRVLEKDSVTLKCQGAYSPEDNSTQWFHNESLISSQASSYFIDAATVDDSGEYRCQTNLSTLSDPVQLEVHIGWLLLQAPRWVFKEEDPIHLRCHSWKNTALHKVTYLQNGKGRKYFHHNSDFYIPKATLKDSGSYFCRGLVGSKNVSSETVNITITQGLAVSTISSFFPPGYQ

Binder | KD fold (SG1 = 1)
B1 | 0.16 fold
B2 | 0.01 fold
B3 | 0.15 fold
B4 | 0.05 fold
B5 | 0.35 fold

Target: T1, cynomolgus monkey FcγRIIa1 …
Assay: SPR (BIACORE), antibody captured, FcγR as analyte, 25°C

Binder | Kd
B1 | 1900 nM
B2 | 5600 nM
B3 | 2200 nM
B4 | 24000 nM
B5 | 3200 nM

Target: T5, cynomolgus monkey FcγRIIa2 …
Assay: as above

Binder | Kd
B1 | 1700 nM
B2 | 5500 nM
B3 | 1900 nM
B4 | 20000 nM
B5 | 3000 nM

Target: T6, cynomolgus monkey FcγRIIb extracellular …
Assay: as above

Binder | Kd
B1 | 560 nM
B2 | 2800 nM
B3 | 590 nM
B4 | 840 nM
B5 | 1000 nM
